In paper PMC7354515 (Viruses, 2020):

Legend:
[1] = biological target: CuV VP2 (CuV capsid, virus-like particle) (Cutavirus, UniProt A0A1B0VEZ1); assay: glycan microarray (CFG v5.[…]), DyLight 488-labelled VLPs; type: binding; details: immobilised glycan; PBS/Tween-20, room temperature; weak signal, authors advise caution
[2] = biological target: Cutavirus (CuV) VP2, assembled as virus-like particles (cutavirus (CuV)); assay: cryo-EM structure
[3] = biological target: Tusavirus (TuV) VP2, assembled as virus-like particles (tusavirus (TuV)); assay: cryo-EM structure

`CC(=O)N[C@H]1C(O)O[C@H](CO)[C@@H](O[C@@H]2O[C@H](CO)[C@H](O)[C@H](O)[C@H]2O)[C@@H]1O[C@@H]1O[C@@H](C)[C@@H](O)[C@@H](O)[C@@H]1O` (stereo partly drawn) [LeX] was tested, and the “glycan microarray (CFG v5.2), DyLight 488-labelled VLPs” value [1] was “the minimal LeX motif was weakly bound by CuV”.
With “Cutavirus (CuV) VP2, assembled as virus-like particles (natural protein)” the stoichiometry N [2] was 60.
In the case of “Tusavirus (TuV) VP2, assembled as virus-like particles (natural protein)”, the stoichiometry N [3] is reported as 60.
